From patent US20200347144A1 (SHANGHAI HYAMAB BIOTECH, published 2020)

T1: mouse 4-1BB protein (extracellular domain) (mouse, UniProt P20334 24-187)
T1 construct: extracellular domain; also called mouse 4-1BB-his; mouse 4-1BB-hFc protein
T1 sequence (looked up): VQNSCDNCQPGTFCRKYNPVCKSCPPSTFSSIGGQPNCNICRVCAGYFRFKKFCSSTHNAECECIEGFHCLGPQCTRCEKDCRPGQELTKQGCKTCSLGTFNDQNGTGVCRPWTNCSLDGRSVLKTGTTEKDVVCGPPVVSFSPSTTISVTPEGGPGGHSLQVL


Key:
[1] = biological target: T1, mouse 4-1BB protein (extracellular …); assay: ELISA, coated mouse 4-1BB; Ab 0.08 ug/ml
Protocol: (§1) The purified immunogen A (4-1BB-hFc), monkey 4-1BB-his, and mouse 4-1BB-his obtained in Example 1 [for the preparation method, see step 1 of Example 1, preparation of immunogen A], of which the extracellular domain of monkey-derived 4-1BB protein (purchased from ACRO biosystems), the extracellular domain of mouse 4-1BB protein (purchased from sino biological) or other immune detection point proteins respectively were diluted with PBS to a final concentration of 1.0 μg/mL, then added with […] per well to 96-well ELISA plate. It was sealed with plastic film and incubated at 4° C. overnight. The next day, the plate was washed twice with the plate-washing solution [PBS containing 0.01% (v/v) Tween20] and blocking solution [PBS containing 0.01% (v/v) Tween 20 and 1% (v/v) BSA] was added and blocked at room temperature for 2 hours. The blocking solution was discarded and 100 μl of the purified 4-1BB antibody obtained in Example 2 was added per well. After incubated at 37° C. for 2 hours, the plate was washed 3 times with a plate-washing solution [PBS containing 0.01% (v/v) Tween20]. A secondary antibody (purchased from Sigma) labeled with HRP (horseradish peroxidase) was added, and after incubated at 37° C. for 2 hours, the plate was washed 3 times with a plate-washing solution [PBS containing 0.01% (v/v) Tween20]. 100 μl of TMB substrate was added per well. After incubated for 30 minutes at room temperature, 100 μl of stop buffer (1.0N HCl) was added per well. The A450 nm values were read using an ELISA plate reader (SpectraMax 384plus, Molecular Device).

[2] = biological target: T1, mouse 4-1BB protein (extracellular …); assay: ELISA, coated mouse 4-1BB; Ab 0.0006 ug/ml
Protocol: as §1

[3] = biological target: T1, mouse 4-1BB protein (extracellular …); assay: ELISA, coated mouse 4-1BB; Ab 0.016 ug/ml
Protocol: as §1

[4] = biological target: T1, mouse 4-1BB protein (extracellular …); assay: ELISA, coated mouse 4-1BB; Ab 0.4 ug/ml
Protocol: as §1

[5] = biological target: T1, mouse 4-1BB protein (extracellular …); assay: ELISA, coated mouse 4-1BB; Ab 0.0032 ug/ml
Protocol: as §1

[6] = biological target: T1, mouse 4-1BB protein (extracellular …); assay: ELISA: mouse 4-1BB protein coated at 1.0 µg/mL (target by Table 10; the legend paragraph 119 says monkey 4-1BB-hFc), antibody titrated, HRP secondary antibody, OD450
Protocol: as §1

[7] = biological target: T1, mouse 4-1BB protein (extracellular …); assay: ELISA, coated mouse 4-1BB; Ab 10 ug/ml
Protocol: as §1

[8] = biological target: T1, mouse 4-1BB protein (extracellular …); assay: ELISA, coated mouse 4-1BB; Ab 0.0001 ug/ml
Protocol: as §1

monkey 4-1BB-his protein [9] = biological target: T2, monkey 4-1BB-his protein (monkey); assay: ELISA, coated monkey 4-1BB-his; Ab 0.4 ug/ml
T2 construct: extracellular domain; Bought protein; also called extracellular domain of monkey-derived 4-1BB protein
Protocol: as §1

monkey 4-1BB-his protein [10] = biological target: T2, monkey 4-1BB-his protein; assay: ELISA, coated monkey 4-1BB-his; Ab 0.0032 ug/ml
Protocol: as §1

monkey 4-1BB-his protein [11] = biological target: T2, monkey 4-1BB-his protein; assay: ELISA, coated monkey 4-1BB-his; Ab 0.08 ug/ml
Protocol: as §1

monkey 4-1BB-his protein [12] = biological target: T2, monkey 4-1BB-his protein; assay: ELISA, coated monkey 4-1BB-his; Ab 10 ug/ml
Protocol: as §1

monkey 4-1BB-his protein [13] = biological target: T2, monkey 4-1BB-his protein; assay: ELISA, coated monkey 4-1BB-his; Ab 0.016 ug/ml
Protocol: as §1

monkey 4-1BB-his protein [14] = biological target: T2, monkey 4-1BB-his protein; assay: ELISA: monkey 4-1BB-his coated at 1.0 µg/mL, antibody titrated, HRP secondary antibody, OD450
Protocol: as §1

Row | Binder | OD450 nm [1] | OD450 nm [2] | OD450 nm [3] | OD450 nm [4] | OD450 nm [5] | binding result [6] | OD450 nm [7] | OD450 nm [8] | OD450 nm (monkey 4-1BB-his protein [9]) | OD450 nm (monkey 4-1BB-his protein [10]) | OD450 nm (monkey 4-1BB-his protein [11]) | OD450 nm (monkey 4-1BB-his protein [12]) | OD450 nm (monkey 4-1BB-his protein [13]) | EC50 (read off the curve) (monkey 4-1BB-his protein [14])
1 | 172E3E3 (antibody, V domains shown) VH: QVQLQESGPGLVKPSGTLSLTCAVSGGSISSSNWWSWVRQPPGKGLEWIGEIYHSGSTNYNPSLKSRVTISVDKSKNQLSLNLSSVTAADTAVYYCARQGGVAGTLYWYFDLWGRGTLVTVSS VL: DIVMTQSPLSLPVTPGEPASISCRSSQGLLHSNGYNYLDWYLQKPGQSPQLLIYLGSNRASGVPDRFIGSGSGTDFTLKIRRVEAEDVGVYYCMQVLQTPWTFGQGTKVEIK | 0.05 OD450 nm | 0.05 OD450 nm | 0.05 OD450 nm | 0.06 OD450 nm | 0.05 OD450 nm | no binding (tested: 10 µg/ml) | 0.3 OD450 nm | 0.05 OD450 nm |  |  |  |  |  | 
2 | 258F5A8 (antibody, V domains shown) VH: QVQLVESGGGVVQPGRSLRLSCAASGFTFSSYGMHWVRQAPGKGLEWVAVIWYDGSNKYYADSVKGRFNISRDNSKNTLYLQMNSLRAEDTAVYYCARGPYLYSSGWYDYYYYGMDVWGQGTTVTVSS VL: not shown |  |  |  |  |  |  |  |  | 1.32 OD450 nm | 0.08 OD450 nm | 0.55 OD450 nm | 1.98 OD450 nm | 0.13 OD450 nm | 
3 | 259G10E11 (antibody, V domains shown) VH: QVQLVESGGGVVQPGRSLRLSCAASGFTFSSYGMHWVRQAPGKGLEWVAVIWYDGSNKYYADSVKGRFTISRDNSKNTLYLQMNSLRAEDTAVYYCARGPYLYSSGWYDYYYYGMDVWGQGTTVTVSS VL: not shown |  |  |  |  |  |  |  |  | 1.18 OD450 nm | 0.07 OD450 nm | 0.46 OD450 nm | 1.83 OD450 nm | 0.12 OD450 nm | 
4 | 119B6G5 (antibody, V domains shown) VH: EVQLLESGGGLVQPGGSLRLSCAASGFTFSNYAMSWVRQGPGKGLEWVSTIIGSGDSTYYTDSVKGRFTISRDNSKNTLFLQMNSLRAEDTAVYYCARDKSGWYYFDYWGQGTLVTVSS VL: DIQMTQSPSTLSASVGDRVTITCRASQSISNWLAWYQQKPGKAPKLLIYKASSLESGVPSRFSGSGSGTEFTLTISSLQPDDFATYYCQQYNDYFPITFGQGTRLEIK |  |  |  |  |  |  |  |  | 2.54 OD450 nm | 0.24 OD450 nm | 2.15 OD450 nm | 2.48 OD450 nm | 0.77 OD450 nm | ~0.03 µg/mL
5 | 263A11E3 (antibody, V domains shown) VH: QVQLQESGPGLVKPSETLSLTCAVSGYSISSGYYWGWIRQPPGKGLEWIGSIYHSGSTSYNPSLRSRVTISVDTSKNQFSLKLSSVTAADTAVYYCARDAGGFDYWGQGTLVTVSS VL: not shown |  |  |  |  |  |  |  |  | 0.14 OD450 nm | 0.07 OD450 nm | 0.08 OD450 nm | 0.87 OD450 nm | 0.07 OD450 nm | 
6 | 118F3A2 (antibody, V domains shown) VH: QVQLQQWGAGLLKPSETLSLTCGVYGGSFSTNYWSWIRQSPGKGLEWIGEINHSGNTEYNPSLKSRLTISIDTSKNQFSLKLTSVTAADTAVYYCARMGYHSPSFDFWGQGVLVTVSS VL: KIVMTQSPATLSVSPGERATLPCRVSQGIGSNLAWYQQKPGQAPRLLIYGASTRATGVPARFSGSGSGSEFTLTISSLQSEDLALYYCQQYNNWPLTFGGGTKVEIK | 0.12 OD450 nm | 0.05 OD450 nm | 0.09 OD450 nm | 0.06 OD450 nm | 0.11 OD450 nm | no binding (tested: 10 µg/ml) | 0.31 OD450 nm | 0.05 OD450 nm |  |  |  |  |  | 
7 | 113F6C6 (antibody, V domains shown, also called 4-1BB fully human antibody 113F6C6; 113F6F6) VH: QVQLVESGGGVVQPGRSLRLSCAASGLTFSSYGMHWVRQAPGKGLEWVAVIWYDGSNKYYADSVKGRFTISRDNSKNTLYLQMNSLRAEDTAVYYCAREEVLWFGELSYNYYYGMDVWGQGTTVTVSS VL: DIQMTQSPSSLSASVGDRVTITCRASQGISNYLAWYQQKPGKVPKLLIYAASTLQSGVPSRFSGSGSGTDFTLTISSLQPEDVATYYCQKYNSVPLTFGGGTKVEIK | 0.05 OD450 nm | 0.05 OD450 nm | 0.05 OD450 nm | 0.08 OD450 nm | 0.05 OD450 nm | no binding (tested: 10 µg/ml) | 0.25 OD450 nm | 0.05 OD450 nm | 2.14 OD450 nm | 0.14 OD450 nm | 1.58 OD450 nm | 2.36 OD450 nm | 0.47 OD450 nm | ~0.05 µg/mL
8 | 57B3D10 (antibody, V domains shown, also called 4-1BB fully human antibody 57B3D10) VH: QVQLQESGPGLVKPSETLSLTCTVSGGSISSYYWSWIRQPPGKGLEWIGYIYYSGSTNYNPSLKSRVTISVDTSKSQFSLKLTSVTAADTAVYYCAKDSDYYGSGSYSYWYFDLWGRGTLVTVSS VL: EIVMTQSPATLSVSPGERATLSCRASQSVSSNLAWYQQKPGQAPRLLIYGASTRAPGIPARFSGSGSGTEFTLTISSLQSEDFAVYYCQQYNNWPLTFGGGTKVEIK | 0.14 OD450 nm | 0.05 OD450 nm | 0.16 OD450 nm | 0.28 OD450 nm | 0.2 OD450 nm | no binding (tested: 10 µg/ml) | 0.24 OD450 nm | 0.05 OD450 nm | 2.44 OD450 nm | 0.25 OD450 nm | 2.03 OD450 nm | 2.42 OD450 nm | 0.81 OD450 nm | ~0.03 µg/mL
9 | 170D7F2 (antibody, V domains shown) VH: QVQLVQSGAEVKKPGASVKVSCKASGYTFTSYDINWVRQATGQGLEWMGWMNPNSGNTGYAQKFQGRVTMTRNTSISTAYMELSSLRSEDTAVYYCARETGPFDYWGQGTLVTVSS VL: DIQMTQSPSSLSASVGDRVTITCRASQRINNYLNWYQQKPGKAPKLLIYGASSLQSGVPSRFSGSGSGTDFTLTISSLQPEDFATYYCQQSYSTPFTFGPGTKVDIK | 0.1 OD450 nm | 0.05 OD450 nm | 0.18 OD450 nm | 0.12 OD450 nm | 0.14 OD450 nm | no binding (tested: 10 µg/ml) | 0.27 OD450 nm | 0.05 OD450 nm |  |  |  |  |  | 
